For data set [1], the target named is antithrombin III (plasma purified human AT-III), in complex with unfractionated heparin.
Data set [2] deals with plasma purified human AT-III (Molecular Innovations).
Data set [3] concerns the target plasma purified human antithrombin III (AT-III) in complex with unfractionated heparin (AT-III/UFH).

Residue numbers refer to the chain shown, from its start. Numbers in names are those of the source.

Sequence of Factor X, P00742 (P00742 whole entry, looked up): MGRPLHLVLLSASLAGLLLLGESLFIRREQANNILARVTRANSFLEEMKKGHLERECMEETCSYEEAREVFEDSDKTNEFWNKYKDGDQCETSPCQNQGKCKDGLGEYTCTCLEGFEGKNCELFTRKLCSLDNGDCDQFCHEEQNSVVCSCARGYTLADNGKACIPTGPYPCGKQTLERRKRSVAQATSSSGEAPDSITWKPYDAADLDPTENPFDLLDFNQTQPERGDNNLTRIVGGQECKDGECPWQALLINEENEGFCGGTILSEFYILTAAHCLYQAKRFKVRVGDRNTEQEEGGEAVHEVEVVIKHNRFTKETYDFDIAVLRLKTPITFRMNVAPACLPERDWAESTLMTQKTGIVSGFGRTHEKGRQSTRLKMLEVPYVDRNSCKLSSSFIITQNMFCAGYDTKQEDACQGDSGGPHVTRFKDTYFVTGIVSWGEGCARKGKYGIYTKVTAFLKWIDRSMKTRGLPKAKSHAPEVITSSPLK
Sequence of Factor X (FX), P00742 (P00742 whole entry, looked up): as above

B1: FIXa-K293A/R338A/R403A (protein)
chain 1: YNSGKLEEFVQGNLERECMEEKCSFEEAREVFENTERTTEFWKQYVDGDQCESNPCLNGGSCKDDINSYECWCPFGFEGKNCELDVTCNIKNGRCEQFCKNSADNKVVCSCTEGYRLAENQKSCEPAVPFPCGRVSVSQTSKLTR
chain 2: VVGGEDAKPGQFPWQVVLNGKVDAFCGGSIVNEKWIVTAAHCVETGVKITVVAGEHNIEETEHTEQKRNVIRIIPHHNYNAAINKYNHDIALLELDEPLVLNSYVTPICIADAEYTNIFLKFGSGYVSGWGRVFHKGRSALVLQYLRVPLVDRATCLASTKFTIYNNMFCAGFHEGGRDSCQGDSGGPHVTEVEGTSFLTGIISWGEECAMKGKYGIYTKVSAYVNWIKEKTKLT
In the case of B1, in the data set with Factor X (FX), P00742, the kcat (FX activation in the Xase complex) was 1.6 s⁻¹ and the kcat/KM for FX activation (Xase assay with FVIIIa, PC/PS vesicles, Ca2+) worked out at 2.5e+07 M⁻¹ s⁻¹. Also, in the data set with Factor X, P00742, the “% of WT (kcat/KM)” value stood at 53% and the kcat/KM worked out at 2.5e+07 M⁻¹ s⁻¹. In data set [1], the K0.5 was > 999 nM and the K0.5-mut/K0.5-wt was > 51.7. This protein gave a K0.5-mut/K0.5-wt in data set [2] of 16.9.

B2: FIXa-K293E/R338E/R403E (protein)
chain 1: B1 chain 1
chain 2: B1 chain 2 with A113E, A158E, A223E
For the protein B2, in the data set with Factor X (FX), P00742, the kcat (FX activation in the Xase complex) was found to be 0.8 s⁻¹ and the kcat/KM for FX activation (Xase assay with FVIIIa, PC/PS vesicles, Ca2+) was determined as 1.7e+07 M⁻¹ s⁻¹. Also, in the data set with Factor X, P00742, the “% of WT (kcat/KM)” value came out at 36%, the KM (Catalytic activity of FIXa variants) is 0.05 µM and the kcat/KM worked out at 1.7e+07 M⁻¹ s⁻¹. Also, in data set [1], the K0.5 was > 999 nM and the K0.5-mut/K0.5-wt was > 51.7. The K0.5-mut/K0.5-wt in data set [2] was found to be 14.2.

B3: FIXa D203N/F205T/R318Y/E410N (mature FIX numbering) (protein)
chain 1: B1 chain 1
chain 2: B1 chain 2 with D23N, F25T, A113K, R138Y, A158R, A223R, E230N
The protein B3 gave a K0.5 in data set [3] of 1280 nM.

These data come from US20210230570.
